# Paper PMC6232189, “Expression optimization of recombinant cholesterol oxidase in Escherichia coli and its purification and characterization” (AMB Express, 2018)
# B1: ChOA (cholesterol oxidase from Streptomyces sp. SA-COO) (Streptomyces sp. SA-COO) (protein)
# chain: DNGGYVPAVVIGTGYGAAVSALRLGEAGVQTLMLEMGQLWNQPGPDGNIFCGMLNPDKRSSWFKNRTEAPLGSFLWLDVVNRNIDPYAGVLDRVNYDQMSVYVGRGVGGGSLVNGGMAVEPKRSYFEEILPRVDSSEMYDRYFPRANSMLRVNHIDTKWFEDTEWYKFARVSREQAGKAGLGTVFVPNVYDFGYMQREAAGEVPKSALATEVIYGNNHGKQSLDKTYLAAALGTGKVTIQTLHQVKTIRQTKDGGYALTVEQKDTDGKLLATKEISCRYLFLGAGSLGSTELLVRARDTGTLPNLNSEVGAGWGPNGNIMTARANHMWNPTGAHQSSIPALGIDAWDNSDSSVFAEIAPMPAGLETWVSLYLAITKNPQRGTFVYDAATDRAKLNWTRDQNAPAVNAAKALFDRINKANGTIYRYDLFGTQLKAFADDFCYHPLGGCVLGKATDDYGRVAGYKNLYVTDGSLIPGSVGVNPFVTITALAERNVERIIKQDVTAS
# Substrate: CC(C)CCC[C@@H](C)[C@H]1CC[C@H]2[C@@H]3CC=C4C[C@@H](O)CC[C@]4(C)[C@H]3CC[C@]12C
# Assay: purified protein
# Format: biochemical, Streptomyces sp. SA-COO
# Conditions: 0-1 mM cholesterol, 0.1 M potassium phosphate pH 7, 25 °C
protein,measurement,value
B1,Km,13 µM
